These results are taken from patent US20130296247A1.

Assay in all cases: cell-based or functional assay
The target of assay [1] is Nav1.2 sodium channel (rBIIa) (UniProt P04775).
The target of assay [2] is human Nav1.7 sodium channel alpha subunit (human) (UniProt Q15858).
Assay [3] concerns the target Nav1.2 sodium channel (rBIIa), P04775.

Chain of human Nav1.7 sodium channel alpha subunit (human) (Q15858 whole entry): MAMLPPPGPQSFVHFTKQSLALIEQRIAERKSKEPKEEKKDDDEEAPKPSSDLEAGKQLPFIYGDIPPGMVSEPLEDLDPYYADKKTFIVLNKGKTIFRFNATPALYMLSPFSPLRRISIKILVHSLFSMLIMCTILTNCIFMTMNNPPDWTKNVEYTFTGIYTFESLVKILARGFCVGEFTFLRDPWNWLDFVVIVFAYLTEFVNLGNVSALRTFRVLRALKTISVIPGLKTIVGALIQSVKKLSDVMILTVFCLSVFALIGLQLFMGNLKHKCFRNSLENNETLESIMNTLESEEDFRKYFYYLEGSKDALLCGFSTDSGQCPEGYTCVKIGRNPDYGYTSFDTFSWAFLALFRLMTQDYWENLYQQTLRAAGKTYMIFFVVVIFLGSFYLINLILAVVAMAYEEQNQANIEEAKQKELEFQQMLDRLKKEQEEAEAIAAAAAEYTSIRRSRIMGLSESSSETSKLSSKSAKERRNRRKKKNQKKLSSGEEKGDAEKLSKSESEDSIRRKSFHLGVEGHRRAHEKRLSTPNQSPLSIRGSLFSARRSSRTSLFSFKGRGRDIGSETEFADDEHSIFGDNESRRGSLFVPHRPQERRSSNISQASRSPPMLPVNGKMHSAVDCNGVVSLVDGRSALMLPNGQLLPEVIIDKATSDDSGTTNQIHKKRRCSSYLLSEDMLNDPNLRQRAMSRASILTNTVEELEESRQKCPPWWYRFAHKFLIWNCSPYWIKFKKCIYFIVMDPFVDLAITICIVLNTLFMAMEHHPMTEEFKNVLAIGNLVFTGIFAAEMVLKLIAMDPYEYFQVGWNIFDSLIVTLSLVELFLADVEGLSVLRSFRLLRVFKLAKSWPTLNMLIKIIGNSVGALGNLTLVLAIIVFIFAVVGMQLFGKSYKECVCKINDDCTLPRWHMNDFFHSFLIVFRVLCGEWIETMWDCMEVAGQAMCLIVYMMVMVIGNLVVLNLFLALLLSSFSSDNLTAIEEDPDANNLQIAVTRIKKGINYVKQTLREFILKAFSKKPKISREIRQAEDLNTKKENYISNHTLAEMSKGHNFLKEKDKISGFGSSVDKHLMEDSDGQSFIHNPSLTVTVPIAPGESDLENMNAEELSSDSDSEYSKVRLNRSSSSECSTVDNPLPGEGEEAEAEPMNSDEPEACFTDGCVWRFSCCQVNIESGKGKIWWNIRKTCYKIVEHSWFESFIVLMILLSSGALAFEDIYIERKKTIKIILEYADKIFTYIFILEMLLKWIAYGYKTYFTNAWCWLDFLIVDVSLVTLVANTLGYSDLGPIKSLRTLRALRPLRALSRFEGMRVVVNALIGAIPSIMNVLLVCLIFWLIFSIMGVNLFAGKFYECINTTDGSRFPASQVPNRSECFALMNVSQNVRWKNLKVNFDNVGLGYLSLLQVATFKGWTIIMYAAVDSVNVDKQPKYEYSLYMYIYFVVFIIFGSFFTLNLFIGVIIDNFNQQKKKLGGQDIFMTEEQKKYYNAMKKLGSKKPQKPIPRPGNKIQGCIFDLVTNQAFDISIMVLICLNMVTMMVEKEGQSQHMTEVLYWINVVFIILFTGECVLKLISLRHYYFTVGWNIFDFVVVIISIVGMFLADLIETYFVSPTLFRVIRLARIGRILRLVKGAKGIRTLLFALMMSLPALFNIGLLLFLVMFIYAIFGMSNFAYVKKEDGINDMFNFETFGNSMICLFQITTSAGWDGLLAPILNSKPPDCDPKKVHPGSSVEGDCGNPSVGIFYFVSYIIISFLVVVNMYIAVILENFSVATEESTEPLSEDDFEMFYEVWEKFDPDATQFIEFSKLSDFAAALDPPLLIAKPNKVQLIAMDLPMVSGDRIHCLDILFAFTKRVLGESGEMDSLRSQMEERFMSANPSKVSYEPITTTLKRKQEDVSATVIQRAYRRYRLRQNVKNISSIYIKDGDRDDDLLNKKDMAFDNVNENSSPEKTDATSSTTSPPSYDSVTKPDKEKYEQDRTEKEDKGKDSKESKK

Turning to JzTx XII (peptide), the IC50 Nav1.2 in assay [1] came out at 73900 nM.

In the case of JzTx V (peptide), in assay [1], the IC50 Nav1.2 stood at 157 nM. Besides, in assay [2], the IC50 Nav1.7 was 14 nM.

Turning to GrTx I (peptide), in assay [1], the IC50 Nav1.2 was 2690 nM. The molecule further returned an IC50 Nav1.7 in assay [2] of 1010 nM.

In assay [1], GsMTx II/PaTX II (peptide) yielded an IC50 Nav1.2 of 2700 nM. This molecule also registered an IC50 Nav1.7 in assay [2] of 260 nM.

On to Phrixotoxin I (peptide), for which the IC50 Nav1.2 in assay [1] amounted to 5000 nM.

Consider VsTx II (peptide), for which the IC50 Nav1.2 in assay [1] was found to be 42400 nM. The IC50 Nav1.7 in assay [2] was found to be 9260 nM.

For the molecule GsAF I (peptide), the IC50 Nav1.2 in assay [1] stood at 255 nM. The IC50 Nav1.7 in assay [2] worked out at 249 nM.

In assay [1], GsAF II (peptide) yielded an IC50 Nav1.2 of 410 nM. For the same molecule, the IC50 Nav1.7 in assay [2] was found to be 70 nM.

With YCQKWMWTCDSERKCCEGMVCRLWCKKKLW (modifications not checked) [peptide of SEQ ID NO: 2], the IC50 Nav1.2 in assay [3] amounted to 8 nM.
